B1: Triggering receptor expressed on myeloid cells 2 (Homo sapiens), Q9NZC2 (parent)
chain: MEPLRLLILLFVTELSGAHNTTVFQGVAGQSLQVSCPYDSMKHWGRRKAWCRQLGEKGPCQRVVSTHNLWLLSFLRRWNGSTAITDDTLGGTLTITLRNLQPHDAGLYQCQSLHGSEADTLRKVLVEVLADPLDHRDAGDLWFPGESESFEDAHVEHSISRSLLEGEIPFPPTSILLLLACIFLIKILAASALWAAAWHGQKPGTHPPSELDCGHDPGYQLQTLPGLRDT

Variants of: B1
Details: with tyobp_human TYROBP

Variant | effect of a mutation on the interaction
R47H | with no effect
T66M | increasing interaction strength

Variants of: B1
Details: with tyobp_human TYROBP
Remark: another data set of the same source

Variant | effect of a mutation on the interaction
T66M | with no effect
S116C | with no effect
